Measured values taken from US20180092975A1.

Legend:
[1] = molecular target: human PD-1 expressed on cells (human) (UniProt Q15116); experiment: flow cytometry on CHO cells expressing human PD-1, detection with anti-human IgG Fc, PE GeoMFI; design: unit not given here
[2] = molecular target: cyno PD-1 expressed on cells (cynomolgus monkey) (UniProt B0LAJ3); experiment: flow cytometry on CHO cells expressing cyno PD-1, detection with anti-human IgG Fc, PE GeoMFI; design: unit not given here
Sequence of UniProt B0LAJ3 (B0LAJ3 entry or part of it limits assumed): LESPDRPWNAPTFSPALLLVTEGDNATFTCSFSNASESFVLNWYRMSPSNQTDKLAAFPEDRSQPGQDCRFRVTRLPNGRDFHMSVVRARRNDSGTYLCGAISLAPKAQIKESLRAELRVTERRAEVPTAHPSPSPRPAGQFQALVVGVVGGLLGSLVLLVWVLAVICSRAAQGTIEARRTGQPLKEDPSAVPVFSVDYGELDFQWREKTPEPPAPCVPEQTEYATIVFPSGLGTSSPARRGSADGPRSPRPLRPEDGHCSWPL

Sequence of UniProt Q15116 (Q15116 25-198 limits assumed): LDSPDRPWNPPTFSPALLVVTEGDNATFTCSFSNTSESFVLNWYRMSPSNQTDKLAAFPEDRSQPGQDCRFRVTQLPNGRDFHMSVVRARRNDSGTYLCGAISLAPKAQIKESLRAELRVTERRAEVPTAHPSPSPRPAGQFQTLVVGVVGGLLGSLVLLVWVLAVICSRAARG

LogEC50 [1]: -7.75
LogEC50 [2]: -6.89
Substance: huIgG1 Fc
